This is an account of results in US20260116996A1 (REGENTS OF THE UNIVERSITY OF MINNESOTA, published 2026).

For test [1], the target named is T1, human serpinB7 (human, UniProt O75635 1-380).
T1 construct: Luminex antigen captured from a 293 cell lysate; not shown: V5-His tag of the pcDNA3.1 Directional V5-His-TOPO vector
T1 sequence (looked up): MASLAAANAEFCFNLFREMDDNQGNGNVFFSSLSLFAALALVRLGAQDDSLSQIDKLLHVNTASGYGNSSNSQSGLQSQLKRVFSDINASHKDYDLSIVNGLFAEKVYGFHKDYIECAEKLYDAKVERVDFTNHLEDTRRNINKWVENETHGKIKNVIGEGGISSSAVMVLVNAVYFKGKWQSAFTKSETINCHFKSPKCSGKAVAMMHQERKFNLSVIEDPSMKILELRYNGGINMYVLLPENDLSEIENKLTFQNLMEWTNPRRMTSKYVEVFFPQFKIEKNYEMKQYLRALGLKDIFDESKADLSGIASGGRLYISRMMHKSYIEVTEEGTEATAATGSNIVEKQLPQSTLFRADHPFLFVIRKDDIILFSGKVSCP
In words: Luminex bead assay, beads coated with human serpinB7, background (Gfp and Scgn beads) subtracted. As to the method: (§1) The latter was determined as the average antibody binding to Luminex beads coated with Gfp and Scgn control antigens. Similar data were obtained for antigen binding of Fab fragments of these antibodies (data not shown).
(§2) Luminex assay. Luminex-based technology was used to measure serpinB13 AA in human samples. Initially, the Luminex beads were precoated with serpinB13, Gfp and Scgn, using precleared lysates of 293 cells that had been transfected with individual cDNAs. Biotinylated mouse anti-human K and 2 chain mAbs (BD Biosciences) (dilution 1:300) and streptavidin (Invitrogen) (dilution 1:200) were used as secondary reagents to measure human serum binding activity to individual antigens. The data were expressed as fluorescence intensity (F.I.) due to serum binding activity in the presence of beads precoated with serpinB13 and after subtracting the average F.I. due to serum binding activity in the presence of beads precoated with control proteins, Gfp and Scgn (e.g. F.I.^B13-[F.I.^GFP+F.I.^Segn]/2). The samples were evaluated based on the level of F.I. and the degree of inhibition of binding to serpin-B13 coated beads with soluble serpinB13 (2.5 μg/mL), compared with the bovine serum albumin (BSA). […] All samples were run blind on three independent occasions. Subjects with serum samples that produced a positive results three times were considered positive. Subjects with serum samples that produced a negative result on at least one occasion were considered negative.
(§3) To determine whether anti-serpin activity is specific, binding of three human recombinant antibodies to serpinB13 was examined for potential cross-reactivity with other clade B serpins. Binding to the beads conjugated with Gfp and Scgn was used to subtract the background and the assay was developed using the same reagents as those described above for measuring serpinB13 AA in serum samples.

The target in test [2] is T2, human serpinB6 (human, UniProt P35237 1-376).
T2 construct: Luminex antigen captured from a 293 cell lysate; not shown: V5-His tag of the pcDNA3.1 Directional V5-His-TOPO vector
T2 sequence (looked up): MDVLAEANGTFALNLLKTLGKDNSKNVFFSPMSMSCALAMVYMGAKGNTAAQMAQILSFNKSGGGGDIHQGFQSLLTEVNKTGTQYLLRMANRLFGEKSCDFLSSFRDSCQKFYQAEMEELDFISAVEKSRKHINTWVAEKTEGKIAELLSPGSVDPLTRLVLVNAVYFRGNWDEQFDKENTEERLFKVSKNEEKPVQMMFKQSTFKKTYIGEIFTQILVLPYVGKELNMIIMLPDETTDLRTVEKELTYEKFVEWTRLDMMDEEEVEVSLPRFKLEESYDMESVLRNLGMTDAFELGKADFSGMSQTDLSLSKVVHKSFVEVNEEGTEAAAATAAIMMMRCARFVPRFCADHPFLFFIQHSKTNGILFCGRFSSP
In words: Luminex bead assay, beads coated with human serpinB6, background (Gfp and Scgn beads) subtracted. As to the method:
as §1, §2, §3

B1: recombinant fully human anti-serpinB13 antibody Clone 1 (antibody, human IgG1, kappa, V domains shown)
VH: QVQLQESGGGVVQPGRSLRLSCAASGFTFSSYGMHWVRQAPGKGLEWVAVISYDGSNKYYADSVKGRFTISRDNSKNTLYLQMNSLRAEDTAVYYCARDLGAVIAVAGTSTPYNWFDPWGQGTLVTVSS
VL: DVVMTQSPLSLPVTPGEPASISCRSRQSLLHSNGHNYLGWYLQKPGQSPQLLIYLASIRASGIPDRFSGSGSGTDFTLKISRVEAEDVGVYYCMQALQTPYTFGQGTKLEIKR
notes: also called mAb1; mAbs1
Take B1: the binding result in test [1] and in test [2] was “no binding (tested: 1.0 µg/mL)” throughout.

B2: recombinant fully human anti-serpinB13 antibody Clone 3 (antibody, human IgG1, kappa, V domains shown)
VH: QVQLQQWGAGLLKPSETLSLTCAVYGGSFSGYYWSWIRQPPGKGLEWIGEINHSGSTNYNPSLKSRVTISVDTSKNQFSLKLSSVTAADTAVYYCARRYCSGGSCYLVGTGSELDYWGQGTLVTVSS
VL: DIQMTQSPSTLSASVGDRVTITCRASQSISSWLAWYQQKPGKAPKLLIYKASSLEIGVPSRFSGSGYGTEFTLTISSLQPDDFATYYCLQYSTHSTFGQGTRVEIKR
notes: also called mAb3; CLONE3-H(m1) / CLONE3-L(m1)
For the molecule B2, the binding result in test [1] and in test [2] was “no binding (tested: 1.0 µg/mL)” in each case.

B3: recombinant fully human anti-serpinB13 antibody Clone 2 (antibody, human IgG1, kappa, V domains shown)
VH: QMQLVQSGGGVVRPGGSLRLSCAASGFTFDDYGMSWVRQAPGKGLEWVSGINWNGGSTGYADSVKGRFTISRDNAKNSLYLQMNSLRAEDTALYYCARESSMTTVTTYLLREVGVGLDFDYWGQGTLVTVSS
VL: ETTLTQSPGTLSLSPGERATLSCRASQTVSGSYLAWYQQKPGQPPRLLIYGASSRATGIPDRFSGSGSGTDFTLTISRLEPEDFAVYYCQDYGSSRTFGQGTKVELKR
notes: also called mAb2; CLONE2-H(m1) / CLONE2-L(m1)
As for B3, the binding result in test [1] and in test [2] was “no binding (tested: 1.0 µg/mL)” throughout.
